Source: article PMC3492748

Columns and labels:
[1] = target: geminin (Xenopus laevis (endogenous in eggs and embryos)) (UniProt O93352); test: co-IP
[2] = target: Cdt1 (Xenopus laevis (endogenous in eggs and embryos)) (UniProt Q9I9A7); test: co-IP

Substance: Cdt1 (from UniProt Q9I9A7 1-617) (natural protein)
- decline of co-precipitation over 20 minutes after fertilisation [1]: > 50%

Substance: geminin (from UniProt O93352 1-219) (natural protein)
- decline of co-precipitation over 20 minutes after fertilisation [2]: > 50%
